Source: the supplement of paper PMC11246515
± gives the standard deviation of the averaged measurements.

Experiment: total protein half-life in vivo (active degradation + dilution); higher = more stable protein
[1] = E. coli NCM3722 delta-clpP delta-lon delta-hslV, growth: N-lim chemostat, doubling time 6 h
[2] = E. coli NCM3722 delta-clpP, growth: N-lim chemostat, doubling time 6 h
[3] = wild type E. coli NCM3722, growth: C-lim chemostat, doubling time 6 h
[4] = wild type E. coli NCM3722, growth: C-lim chemostat, doubling time 12 h
[5] = wild type E. coli NCM3722, growth: P-lim chemostat, doubling time 6 h
[6] = E. coli NCM3722 delta-hslV, growth: N-lim chemostat, doubling time 6 h
[7] = E. coli NCM3722 delta-lon, growth: N-lim chemostat, doubling time 6 h
[8] = E. coli NCM3722 delta-smpB, growth: N-lim chemostat, doubling time 6 h
[9] = wild type E. coli NCM3722, growth: C-lim chemostat, doubling time 3 h
[10] = wild type E. coli NCM3722, growth: N-lim chemostat, doubling time 6 h
[11] = wild type E. coli NCM3722, growth: N-lim chemostat, doubling time 12 h
[12] = wild type E. coli NCM3722, growth: P-lim chemostat, doubling time 12 h

Sequence | total protein half-life in vivo [1] | total protein half-life in vivo [2] | total protein half-life in vivo [3] | total protein half-life in vivo [4] | total protein half-life in vivo [5] | total protein half-life in vivo [6] | total protein half-life in vivo [7] | total protein half-life in vivo [8] | total protein half-life in vivo [9] | total protein half-life in vivo [10] | total protein half-life in vivo [11] | total protein half-life in vivo [12]
MTAFSTLNVLPPAQLTNLNELGYLTMTPVQAAALPAILAGKDVRVQAKTGSGKTAAFGLGLLQQIDASLFQTQALVLCPTRELADQVAGELRRLARFLPNTKILTLCGGQPFGMQRDSLQHAPHIIVATPGRLLDHLQKGTVSLDALNTLVMDEADRMLDMGFSDAIDDVIRFAPASRQTLLFSATWPEAIAAISGRVQRDPLAIEIDSTDALPPIEQQFYETSSKGKIPLLQRLLSLHQPSSCVVFCNTKKDCQAVCDALNEVGQSALSLHGDLEQRDRDQTLVRFANGSARVLVATDVAARGLDIKSLELVVNFELAWDPEVHVHRIGRTARAGNSGLAISFCAPEEAQRANIISDMLQIKLNWQTPPANSSIATLEAEMATLCIDGGKKAKMRPGDVLGALTGDIGLDGADIGKIAVHPAHVYVAVRQAVAHKAWKQLQGGKIKGKTCRVRLLK | 5.81 ± 1.4 h | 2.58 h | 3.78 h | 8.81 ± 4.4 h | 2.59 h | – | – | – | – | – | – | –
MTALALFDLLKPNYALATQVEFTDPEIVAEYITYPSPNGHGEVRGYLVKPAKMSGKTPAVVVVHENRGLNPYIEDVARRVAKAGYIALAPDGLSSVGGYPGNDDKGRELQQQVDPTN [Q7DFU6] | 2.25 h | – | – | – | – | – | – | – | – | – | – | –
MTALNKKWLSGLVAGALMAVSVGTLAAEQKTLHIYNWSDYIAPDTVANFEKETGIKVVYDVFDSNEVLEGKLMAGSTGFDLVVPSASFLERQLTAGVFQPLDKSKLPEWKNLDPELLKLVAKHDPDNKFAMPYMWATTGIGYNVDKVKAVLGENAPVDSWDLILKPENLEKLKSCGVSFLDAPEEVFATVLNYLGKDPNSTKADDYTGPATDLLLKLRPNIRYFHSSQYINDLANGDICVAIGWAGDVWQASNRAKEAKNGVNVSFSIPKEGAMAFFDVFAMPADAKNKDEAYQFLNYLLRPDVVAHISDHVFYANANKAATPLVSAEVRENPGIYPPADVRAKLFTLKVQDPKIDRVRTRAWTKVKSGK | 4.64 ± 0.23 h | 6.13 ± 0.89 h | 6.34 ± 0.41 h | 13 ± 0.15 h | 6.46 ± 0.65 h | 6.35 ± 0.38 h | 7 ± 1.2 h | 5.81 ± 0.13 h | 2.94 ± 0.29 h | 6.215 ± 0.018 h | 12.89 ± 0.11 h | 13.7 ± 1.1 h
MTAPSQVLKIRRPDDWHLHLRDGDMLKTVVPYTSEIYGRAIVMPNLAPPVTTVEAAVAYRQRILDAVPAGHDFTPLMTCYLTDSLDPNELERGFNEGVFTAAKLYPANATTNSSHGVTSIDAIMPVLERMEKIGMPLLVHGEVTHADIDIFDREARFIESVMEPLRQRLTALKVVFEHITTKDAADYVRDGNERLAATITPQHLMFNRNHMLVGGVRPHLYCLPILKRNIHQQALRELVASGFNRVFLGTDSAPHARHRKESSCGCAGCFNAPTALGSYATVFEEMNALQHFEAFCSVNGPQFYGLPVNDTFIELVREEQQVAESIALTDDTLVPFLAGETVRWSVKQ | 5.58 ± 0.26 h | 5.17 ± 0.099 h | 5.64 ± 0.76 h | 8.19 ± 2.8 h | 6.06 ± 0.17 h | 5.194 ± 0.04 h | 5.46 ± 0.25 h | 4.78 ± 0.2 h | 2.85 ± 0.047 h | 5.06 ± 0.61 h | 9.47 ± 0.78 h | 13.6 ± 0.86 h
MTARYIAIDWGSTNLRAWLYQGDHCLESRQSEAGVTRLNGKSPAAVLAEVTTDWREEKTPVVMAGMVGSNVGWKVAPYLSVPACFSSIGEQLTSVGDNIWIIPGLCVSHDDNHNVMRGEETQLIGARALAPSSLYVMPGTHCKWVQADSQQINDFRTVMTGELHHLLLNHSLIGAGLPPQENSADAFTAGLERGLNTPAILPQLFEVRASHVLGTLPREQVSEFLSGLLIGAEVASMRDYVAHQHAITLVAGTSLTARYQQAFQAMGCDVTAVAGDTAFQAGIRSIAHAVAN | – | – | – | – | 4.75 h | – | – | – | 3.12 ± 0.4 h | – | – | 7.85 h
MTDDFAPDGQLAKAIPGFKPREPQRQMAVAVTQAIEKGQPLVVEAGTGTGKTYAYLAPALRAKKKVIISTGSKALQDQLYSRDLPTVSKALKYTGNVALLKGRSNYLCLERLEQQALAGGDLPVQILSDVILLRSWSNQTVDGDISTCVSVAEDSQAWPLVTSTNDNCLGSDCPMYKDCFVVKARKKAMDADVVVVNHHLFLADMVVKESGFGELIPEADVMIFDEAHQLPDIASQYFGQSLSSRQLLDLAKDITIAYRTELKDTQQLQKCADRLAQSAQDFRLQLGEPGYRGNLRELLANPQIQRAFLLLDDTLELCYDVAKLSLGRSALLDAAFERATLYRTRLKRLKEINQPGYSYWYECTSRHFTLALTPLSVADKFKELMAQKPGSWIFTSATLSVNDDLHHFTSRLGIEQAESLLLPSPFDYSRQALLCVLRNLPQTNQPGSARQLAAMLRPIIEANNGRCFMLCTSHAMMRDLAEQFRATMTLPVLLQGETSKGQLLQQFVSAGNALLVATSSFWEGVDVRGDTLSLVIIDKLPFTSPDDPLLKARMEDCRLRGGDPFDEVQLPDAVITLKQGVGRLIRDADDRGVLVICDNRLVMRPYGATFLASLPPAPRTRDIARAVRFLAIPSSR | 5.98 ± 0.95 h | – | – | – | – | – | – | – | 3.37 h | – | – | –
MTDHTMKKNPVSIPHTVWYADDIRRGEREAADVLGLTLYELMLRAGEAAFQVCRSAYPDARHWLVLCGHGNNGGDGYVVARLAKAVGIEVTLLAQESDKPLPEEAALAREAWLNAGGEIHASNIVWPESVDLIVDALLGTGLRQAPRESISQLIDHANSHPAPIVAVDIPSGLLAETGATPGAVINADHTITFIALKPGLLTGKARDVTGQLHFDSLGLDSWLAGQETKIQRFSAEQLSHWLKPRRPTSHKGDHGRLVIIGGDHGTAGAIRMTGEAALRAGAGLVRVLTRSENIAPLLTARPELMVHELTMDSLTESLEWADVVVIGPGLGQQEWGKKALQKVENFRKPMLWDADALNLLAINPDKRHNRVITPHPGEAARLLGCSVAEIESDRLHCAKRLVQRYGGVAVLKGAGTVVAAHPDALGIIDAGNAGMASGGMGDVLSGIIGALLGQKLSPYDAACAGCVAHGAAADVLAARFGTRGMLATDLFSTLQRIVNPEVTDKNHDESSNSAP | 5.24 ± 0.42 h | 4.62 ± 0.52 h | 6.53 ± 1.6 h | 10.1 ± 3.4 h | 5.62 ± 0.14 h | 4.91 ± 0.3 h | 5.56 ± 0.66 h | 4.42 ± 0.3 h | 3.2 ± 0.32 h | 4.25 ± 0.34 h | 8.83 ± 1.5 h | 11.3 ± 0.24 h
